Literature values, collected in paper PMC5694535.
Where two headings read alike, the source gives them in different places.

Legend:
Clathrin heavy chain TD [1] = target: Clathrin heavy chain TD (UniProt P11442)
Clathrin heavy chain TD [2] = target: Clathrin heavy chain TD (UniProt P11442); remark: listed apart in the source
AP2 beta2 appendage [3] = target: AP2 beta2 appendage (UniProt P63010)
AP2 beta2 appendage [4] = target: AP2 beta2 appendage (UniProt P63010); assay: ITC

UniProt P63010, sequence (P63010 701-937): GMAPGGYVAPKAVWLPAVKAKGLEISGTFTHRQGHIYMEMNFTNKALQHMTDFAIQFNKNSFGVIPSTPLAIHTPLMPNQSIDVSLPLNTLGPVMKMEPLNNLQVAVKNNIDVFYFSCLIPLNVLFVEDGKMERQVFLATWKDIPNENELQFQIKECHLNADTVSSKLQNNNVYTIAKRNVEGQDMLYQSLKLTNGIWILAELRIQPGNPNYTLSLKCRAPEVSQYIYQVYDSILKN
UniProt P11442, sequence (P11442 1-363): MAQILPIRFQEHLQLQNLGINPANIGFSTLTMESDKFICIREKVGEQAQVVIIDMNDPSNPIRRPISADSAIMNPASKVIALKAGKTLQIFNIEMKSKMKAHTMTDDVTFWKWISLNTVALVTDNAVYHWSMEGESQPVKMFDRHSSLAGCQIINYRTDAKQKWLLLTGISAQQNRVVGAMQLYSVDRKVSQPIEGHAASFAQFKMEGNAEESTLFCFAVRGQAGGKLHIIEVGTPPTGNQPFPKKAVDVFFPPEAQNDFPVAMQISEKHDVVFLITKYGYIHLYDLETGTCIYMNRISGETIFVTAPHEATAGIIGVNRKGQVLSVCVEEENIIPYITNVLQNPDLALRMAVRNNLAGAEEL

AP180 DLL/DLF motifs (from UniProt Q05140)
Kd (Clathrin heavy chain TD [1]): 200 µM

AP180 peptide (from UniProt Q05140)
Kd (Clathrin heavy chain TD [2]): 850 µM

ARH peptide (from UniProt Q5SW96)
Kd (AP2 beta2 appendage [3]): 2.4 µM

beta-arrestin
Kd (AP2 beta2 appendage [4]): 2.6 µM
